Experimental data as given in US20250032605A1.

Key:
[1] = molecular target: SARS-2 RBD (wild-type SARS-CoV-2 receptor binding domain, monomer) (SARS-CoV-2) (UniProt P0DTC2); assay: BLI, Fab on FAB2G sensor, RBD as analyte, apparent KD
[2] = molecular target: SARS-1 RBD (SARS-CoV receptor binding domain, monomer) (SARS-CoV (SARS-1)) (UniProt P59594); assay: as above
[3] = molecular target: WIV1 RBD (WIV1-CoV receptor binding domain, monomer) (WIV1-CoV); assay: as above

Substance | Kd (SARS-2^hg (row Trimer)) [nM] | Kd [1] [nM] | Kd [2] [nM] | Kd [3] [nM]
B38 Fab | 3200 | 970 | – | –
CR3022 Fab | – | – | 27 | 37
